From patent publication US20100305034A1 (UNIVERSITY OF BRISTOL, published 2010)

Biological target: the molecule itself
Test: Western blot of conditioned media from transfected HEK293 cells
Procedure: Full length VEGF₁₆₅b or VEGF₁₆₅ (generated by PCR from tissue) was cloned into the expression vector pcDNA₃ using standard methodology, and then transfected into HEK 293 cells and a stable cell line generated using Geneticin selection. Confluent cells were incubated in basal M200 endothelial cell medium for 48 hours, containing neither serum nor Geneticin, and the conditioned media assayed for VEGF concentration using a pan VEGF ELISA(R&D). Control conditioned media (pcDNA3-CM) was collected in the same way from HEK293 cells stably transfected with pcDNA₃. […] VEGF₁₆₅b was the same molecular weight as VEGF₁₆₅, and both isoforms correspond to previously published molecular weights for VEGF₁₆₅ (Ferrara N et al Biophys. Res. Comm. 1989; 161: 851-8). […] This is probably due to the fact that commercially available VEGF₁₆₅ is not glycosylated. There was some VEGF₁₆₅b and VEGF₁₆₅ in the conditioned media that appeared to be de-glycosylated, but this was a small fraction of the total VEGF.

B1: VEGF165b (recombinant, produced by transfected HEK293 cells) (ligand)
chain: APMAEGGGQNHHEVVKFMDVYQRSYCHPIETLVDIFQEYPDEIEYIFKPSCVPLMRCGGCCNDEGLECVPTEESNITMQIMRIKPHQGQHIGEMSFLQHNKCECRPKKDRARQENPCGPCSERRKHLFVQDPQTCKCSCKNTDSRCKARQLELNERTCRSLTRKD
notes: Secreted into conditioned medium of HEK293 cells stably transfected with pcDNA3-VEGF165b; mostly glycosylated (about 23 kDa); also called VEGF165b-CM; new isoform VEGF165b
binding result: binds
